Measurements taken from patent publication US20230064378A1 (Eli Lilly, published 2023).
Where a chain is given by its changes, count along the chain named. Each block holds one binder with its values, some of them ahead of it.

What was measured:
[1] = molecular target: T1, human IL-4Rα on cells (human, UniProt P24394 26-825); test: cell-based or functional assay
T1 sequence: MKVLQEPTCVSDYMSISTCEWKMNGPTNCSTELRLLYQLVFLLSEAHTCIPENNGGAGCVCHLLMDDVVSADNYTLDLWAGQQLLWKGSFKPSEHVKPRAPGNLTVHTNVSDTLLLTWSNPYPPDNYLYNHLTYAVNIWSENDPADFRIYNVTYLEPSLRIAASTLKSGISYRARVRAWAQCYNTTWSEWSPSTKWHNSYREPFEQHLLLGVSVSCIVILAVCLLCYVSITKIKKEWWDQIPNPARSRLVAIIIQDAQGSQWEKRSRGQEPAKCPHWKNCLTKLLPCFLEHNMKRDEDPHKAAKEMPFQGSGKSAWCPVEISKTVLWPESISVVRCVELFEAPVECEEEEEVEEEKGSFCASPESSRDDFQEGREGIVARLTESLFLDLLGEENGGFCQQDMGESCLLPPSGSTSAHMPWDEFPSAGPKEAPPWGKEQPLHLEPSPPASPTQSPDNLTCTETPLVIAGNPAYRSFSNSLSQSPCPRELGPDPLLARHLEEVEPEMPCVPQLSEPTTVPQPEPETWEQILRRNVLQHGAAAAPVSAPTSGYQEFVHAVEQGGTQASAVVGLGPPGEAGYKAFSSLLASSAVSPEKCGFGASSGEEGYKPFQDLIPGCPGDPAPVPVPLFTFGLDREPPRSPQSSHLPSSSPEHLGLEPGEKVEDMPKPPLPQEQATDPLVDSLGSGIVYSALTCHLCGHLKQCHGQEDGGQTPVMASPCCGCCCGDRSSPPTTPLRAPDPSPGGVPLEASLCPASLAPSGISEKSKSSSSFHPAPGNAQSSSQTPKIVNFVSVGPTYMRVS

[2] = molecular target: T1, human IL-4Rα on cells; test: flow cytometry staining of primary human B cells (Th2 cells also confirmed IL-4Rα+)
From the text: Flow cytometry staining was used to assess cell purity on a BD LSRFortessa Cell Analyzer.

[3] = molecular target: T1, human IL-4Rα on cells; test: cell-based or functional assay; remark: listed apart in the source
[4] = molecular target: T2, Human C1q (human, UniProt P02745 23-245; P02746 28-253; P02747 29-245); test: ELISA, antibody coated, C1q detected with anti-C1q-HRP
T2 construct: Bought (MS Biomedical); also called complement component C1q
Method: The binding of the exemplified anti-IL-4Rα antibodies to human C1q was evaluated by ELISA. 96-well microplates were coated with 100 μL/well of each exemplified antibody diluted in DPBS (Dulbecco's HyClone) from 10 μg/mL to 0.19 g/mL, and incubated overnight at 4° C. The coating reagent was removed, plates were blocked with 200 μL/well casein blocking buffer (Thermo) and incubated for 2 hours at room temperature (RT). Plates were washed 3 times with wash buffer (1×TBE with 0.05% Tween 20), and 10 μg/mL Human C1q (MS Biomedical) diluted in casein blocking reagent is added at 100 μL/well and incubated for 3 hours at RT. Humanized IgG1 and humanized IgG4P isotype control antibodies were used as positive and negative controls respectively. Plates were then washed three times with wash buffer and 100 L/well of a 1:800 times dilution of Sheep anti-human C1q-HRP (Abcam #ab46191) in casein blocker was added and incubated for 1 hour at RT. The plates were then washed 6 times with wash buffer, and 100 μL/well of TMB Substrate (Pierce) was added to each well and incubated for 7 minutes. 100 μL/well of 1 N HCl was added to stop the reaction. Optical density was immediately measured at 450 nm on a colorimetric microplate reader. Data was analyzed using SoftMax Pro 7.1 Data Acquisition and Analysis Software.

[5] = molecular target: T1, human IL-4Rα on cells; test: cell-based or functional assay; remark: listed apart in the source
[6] = molecular target: T1, human IL-4Rα on cells; test: cell-based or functional assay; remark: listed apart in the source
[7] = molecular target: T1, human IL-4Rα on cells; test: cell-based or functional assay; remark: listed apart in the source

T2 sequence (P02745 23-245 limits assumed, chain 1 of 3): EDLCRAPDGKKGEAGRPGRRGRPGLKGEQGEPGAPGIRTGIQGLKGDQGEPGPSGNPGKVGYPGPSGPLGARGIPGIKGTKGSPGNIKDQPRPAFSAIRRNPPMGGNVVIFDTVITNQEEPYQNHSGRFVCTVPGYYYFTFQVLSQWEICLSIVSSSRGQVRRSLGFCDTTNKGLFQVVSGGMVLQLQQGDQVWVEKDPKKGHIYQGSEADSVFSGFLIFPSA
T2 sequence (P02746 28-253 limits assumed, chain 2 of 3): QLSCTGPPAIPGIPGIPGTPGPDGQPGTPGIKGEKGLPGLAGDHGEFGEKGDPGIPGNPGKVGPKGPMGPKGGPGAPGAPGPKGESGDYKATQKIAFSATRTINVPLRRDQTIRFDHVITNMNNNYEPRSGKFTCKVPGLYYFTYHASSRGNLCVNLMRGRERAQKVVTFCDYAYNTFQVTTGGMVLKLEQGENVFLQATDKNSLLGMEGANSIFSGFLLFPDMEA
T2 sequence (P02747 29-245 limits assumed, chain 3 of 3): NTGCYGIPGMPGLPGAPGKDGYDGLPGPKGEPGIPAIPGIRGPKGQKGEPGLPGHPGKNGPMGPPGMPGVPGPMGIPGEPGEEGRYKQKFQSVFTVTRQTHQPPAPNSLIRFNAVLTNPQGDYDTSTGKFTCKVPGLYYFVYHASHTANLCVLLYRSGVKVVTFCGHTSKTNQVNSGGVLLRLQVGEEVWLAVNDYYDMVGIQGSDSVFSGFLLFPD

B1: 5F3 IgG4PAA (antibody, V domains shown)
VH: QVQLVESGGGLVQPGGSLRLSCAASGFTFSISSMNWVRQAPGKGLEWVSYISRATGAIYYADSVKGRFTISRNNAKNSLYLQMNSLRDEDTAVYYCAREPVFDYWGQGTLVTVSS
VL: DIQMTQSPSAMSASVGDRVTITCRASQGISNYLAWFQQKPGKVPTRLIYAASSLQSGVPSRFSGSGSGTEFTLTISSLQPEDFATYYCLQHNSYPRTFGQGTKVEIKR
IL-4 IC50 (nM), IL-4 induced SEAP activity in HEK-Blue cells [1]: 3.45 nM
IL-13 IC50 (nM), IL-13 induced SEAP activity in HEK-Blue cells [1]: > 35 nM

B3: 8660 IgG4P 124C/378C (antibody, V domains shown)
VH: B1 VH with I31H, I58V, N73D
VL: B1 VL with H91W, N92S
IL-4 IC50 (nM), IL-4 induced SEAP activity in HEK-Blue cells [1]: 0.03 nM
IL-13 IC50 (nM), IL-13 induced SEAP activity in HEK-Blue cells [1]: 0.24 nM

B4: 5559 IgG4P KRQ 124C/378C (antibody)
heavy: QVQLVESGGGLVQPGGSLRLSCVASGFTFSHSSMNWVRQAPGKGLEWVSYISRATGAVYYADSVKGRFTISRDNAKNSLYLQMNSLRDEDTAVYYCAREPVFDYWGQGTLVTVSSASTKGPCVFPLAPCSRSTSESTAALGCLVKDYFPEPVTVSWNSGALTSGVHTFPAVLQSSGLYSLSSVVTVPSSSLGTKTYTCNVDHKPSNTKVDKRVESKYGPPCPPCPAPEFLGGPSVFLFPPKPKDTLMISRTPEVTCVVVDVSQEDPEVKFNWYVDGVEVHNAKTKPREEQFNSTYRVVSVLTVLHQDWLNGKEYKCKVSNKGLPSSIEKTISKAKGQPREPQVYTLPPSREEMTKNQVSLTCLVKGFYPSDICVEWESNGQPENNYKTTPPVLDSDGSFFLYSRLTVDKSRWQQGNVFSCSVMHEALHNHYTQKSLSLSLG
light: DIQMTQSPSAMSASVGDRVTITCRASQDISNYLAWFQQKPGKVPTRLIYAASSLQSGVPSRFSGSGSGTEFTLTISSLQPEDFATYYCLQWSSYPRTFGQGTKVEIKRTVAAPSVFIFPPSDEQLKSGTASVVCLLNNFYPREAKVQWKVDNALQSGNSQESVTEQDSKDSTYSLSSTLTLSKADYEKHKVYACEVTHQGLSSPVTKSFNRGEC
Inhibition of IL-13 induced STAT6 phosphorylation in B cells IC50 [3]: 0.06 µg/mL
binding result [4]: no binding
Inhibition of IL-4 induced STAT6 phosphorylation, B cells IC50 [5]: 0.05 µg/mL
Inhibition of IL-4 induced STAT6 phosphorylation, T cells IC50 [5]: 0.07 µg/mL
Inhibition of CD23 expression on myeloid cells, IL-4 induced IC50 [6]: 18.2 nM
Inhibition of CD23 expression on myeloid cells, IL-13 induced IC50 [6]: 5.37 nM
IL-4 IC50 (nM), IL-4 induced SEAP activity in HEK-Blue cells [1]: 0.08 nM
IL-13 IC50 (nM), IL-13 induced SEAP activity in HEK-Blue cells [1]: 0.67 nM
Inhibition of IL-4 induced B cell proliferation IC50 [7]: 1.32 nM

Second part, the binder after the results:

binding result [2]: binds
B2: 5559-Alexa Fluor-647 (antibody, V domains shown)
VH: B1 VH with A23V, I31H, I58V, N73D
VL: DIQMTQSPSAMSASVGDRVTITCRASQDISNYLAWFQQKPGKVPTRLIYAASSLQSGVPSRFSGSGSGTEFTLTISSLQPEDFATYYCLQWSSYPRTFGQGTKVEIK
modifications: Antibody conjugated to Alexa Fluor 647; the attachment sites are not stated and the letters do not carry the dye.

binding result [4]: no binding
B5: 5559 IgG1A 124C/378C (antibody)
heavy: not shown
light: B4 light
